Values belong to the binder of their own block, whether it stands above or below them.
Key:
EYFP-LacI-PSF = target: T1, EYFP-LacI-PSF (UniProt Q8VIJ6 1-699); assay: LacO/LacI tethering in cells, recruitment seen by fluorescence microscopy
T1 sequence: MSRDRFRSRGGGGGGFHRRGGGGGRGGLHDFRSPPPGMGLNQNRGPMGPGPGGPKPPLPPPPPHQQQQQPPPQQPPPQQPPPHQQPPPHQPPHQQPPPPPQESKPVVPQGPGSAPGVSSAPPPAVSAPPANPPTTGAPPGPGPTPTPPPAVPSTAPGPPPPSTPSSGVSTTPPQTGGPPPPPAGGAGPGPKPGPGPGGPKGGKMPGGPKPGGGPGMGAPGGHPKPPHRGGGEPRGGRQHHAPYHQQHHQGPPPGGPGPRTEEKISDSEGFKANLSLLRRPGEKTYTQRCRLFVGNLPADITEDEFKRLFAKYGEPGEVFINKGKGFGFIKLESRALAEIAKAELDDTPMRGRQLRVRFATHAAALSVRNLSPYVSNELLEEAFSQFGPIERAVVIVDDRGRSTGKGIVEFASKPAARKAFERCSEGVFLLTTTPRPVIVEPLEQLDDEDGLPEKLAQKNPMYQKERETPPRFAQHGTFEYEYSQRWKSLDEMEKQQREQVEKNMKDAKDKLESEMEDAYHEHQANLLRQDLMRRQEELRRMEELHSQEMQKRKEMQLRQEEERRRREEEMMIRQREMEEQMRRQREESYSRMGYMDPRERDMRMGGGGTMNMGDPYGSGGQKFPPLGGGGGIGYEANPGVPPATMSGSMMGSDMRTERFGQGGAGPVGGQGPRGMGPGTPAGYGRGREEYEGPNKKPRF

EYFP-LacI-PSP1 = target: T2, EYFP-LacI-PSP1 (UniProt Q8R326 1-523); assay: as above
T2 sequence: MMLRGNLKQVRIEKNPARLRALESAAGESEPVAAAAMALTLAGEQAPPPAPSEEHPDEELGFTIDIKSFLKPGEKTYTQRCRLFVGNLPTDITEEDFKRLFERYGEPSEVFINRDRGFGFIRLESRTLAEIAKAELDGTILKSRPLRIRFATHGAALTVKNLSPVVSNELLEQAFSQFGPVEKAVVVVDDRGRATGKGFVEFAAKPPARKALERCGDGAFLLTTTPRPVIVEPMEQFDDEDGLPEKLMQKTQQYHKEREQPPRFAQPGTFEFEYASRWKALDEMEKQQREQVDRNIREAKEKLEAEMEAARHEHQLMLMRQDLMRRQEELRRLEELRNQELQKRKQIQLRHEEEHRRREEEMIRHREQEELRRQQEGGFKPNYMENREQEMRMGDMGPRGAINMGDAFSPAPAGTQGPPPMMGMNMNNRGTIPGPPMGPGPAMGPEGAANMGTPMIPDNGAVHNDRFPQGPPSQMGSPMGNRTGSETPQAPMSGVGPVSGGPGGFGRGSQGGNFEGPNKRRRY

- percent of cells with recruitment to the tethered protein (EYFP-LacI-PSF): 58 % of the cells
B1: PSP2 (natural protein)
chain: MKIFVGNVDGADTTPEELAALFAPYGTVMSCAVMKQFAFVHMRENAGAVRAIEALHGHELRPGRALVVEMSRPRPLNTWKIFVGNVSAACTSQELRSLFERRGRVIECDVVKDYAFVHMEKEADAKAAIAQLNGKEVKGKRINVELSTKGQKKGPALAIQSGDKTKKPGAGDTAFPGTGGFSATFDYQQAFGNSTGGFDGQARQPTPPFFGRDRSPLRRSPPRASYVAPLTAQPATYRAQPSVSLGAAYRAQPSASLGVGYRTQPMAAQAASYRAQPSVSLGAPYRGQLASPSSQSAAASSLGPYGGVQPSASALSTYGGQAAAASSLNSYGAQGSSLASYGNQPSSYGAQAASSYGVRAAASSYNTQGAASSLGSYGAQAASYGAQSAASSLAYGAQAASYSAQPSASYSAQSAPYAAQQAASYSSQPAAYVAQPATAAAYASQPAAYAAQATTPMAGSYGAQPVVQTQLNSYGAQASIGLSGSYGAQSAAAATGSYGAAAAYGAQPSATLAAPYRTQSSASLAASYAAQQHPQAAASYRGQPGSAYDGTGQPSAAYLSMSQGAVANANSTPPPYERTRLSPPRASYDDPYKKAVAMSKRYGSDRRLAELSDYRRLSESQLSFRRSPTKSSLDYRRLPDAHSDYARYSGSYNDYLRAAQMHSGYQRRM

- percent of cells with recruitment to the tethered protein (EYFP-LacI-PSP1): 87 % of the cells
B2: mCherry-p54nrb (natural protein)
chain: MQSNKAFNLEKQNHTPRKHHQHHHQQHHQQQQQQQQQQPPPPIPANGQQASSQNEGLTIDLKNFRKPGEKTFTQRSRLFVGNLPPDITEEEMRKLFEKYGKAGEVFIHKDKGFGFIRLETRTLAEIAKVELDNMPLRGKQLRVRFACHSASLTVRNLPQYVSNELLEEAFSVFGQVERAVVIVDDRGRPSGKGIVEFSGKPAARKALDRCSEGSFLLTTFPRPVTVEPMDQLDDEEGLPEKLVIKNQQFHKEREQPPRFAQPGSFEYEYAMRWKALIEMEKQQQDQVDRNIKEAREKLEMEMEAARHEHQVMLMRQDLMRRQEELRRMEELHNQEVQKRKQLELRQEEERRRREEEMRRQQEEMMRRQQEGFKGTFPDAREQEIRMGQMAMGGAMGINNRGAMPPAPVPPGTPAPPGPATMMPDGTLGLTPPTTERFGQAATMEGIGAIGGTPPAFNRPAPGAEFAPNKRRRY

— article PMC3007124 (Nature cell biology, 2010)
